Test results from article PMC13480645 (PLOS Pathogens, 2026).
Residue numbers refer to the chain shown, from its start.

Columns and labels:
[1] = target: T1, HCoV-HKU1 S2 stem helix peptide (Human coronavirus HKU1, isolate N1, biotin on the N-terminus); experiment: BLI; conditions: both partners purified
T1 chain: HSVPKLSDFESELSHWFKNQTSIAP

[2] = target: T2, SARS-CoV-2 spike, full length, expressed on the cell surface (SARS-CoV-2, UniProt P0DTC2); experiment: flow cytometry on cells; conditions: one partner purified
[3] = target: T3, HCoV-HKU1 S2 stem helix peptide, biotinylated (Human coronavirus HKU1, isolate N1, biotin on the N-terminus); experiment: BLI; conditions: both partners purified
T3 construct: also called HCoV-HKU1 stem helix peptide
T3 chain: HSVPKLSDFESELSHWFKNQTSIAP

[4] = target: T2, SARS-CoV-2 spike, full length, …; experiment: cell-based or functional assay

B1: eCC65.1-12 (antibody, V domains shown)
VH: EVQLVQSGAEVKKPGASVKVSCKASGYTFTSQYMHWVRQAPGQGLEWMGIIDPSGGGTSYAQKFRDRVSMTRDTPTSTVYMELRSLRSEDTAVYYCASLWFENPSWRDYWGQGTLVTVSS
VL: DVVMTQSPGTLSLSPGERATLSCRASQTVNKNYLAWYQQKPGQAPRLLIYHASSRATGIPDRFSGSGSGTDFTLTISRLEPEDFAVYYCQQYGASPPLFTFGPGTKLEIK
In the case of B1, the Kd [1] is reported as 0.129 nM and the kon [1] is reported as 301000 M⁻¹ s⁻¹.

B2: engineered CC65.1 mAb eCC65.1-12 (IgG) (antibody, V domains shown)
VH: B1 VH
VL: B1 VL
notes: copies: 2 + 2
In the case of B2, the binding result [2] is reported as “binds” and the “fold increase in affinity over parental CC65.1” value [3] is reported as 6.7 fold.

B3: CC65.1 human monoclonal antibody (IgG) (antibody, V domains shown)
VH: B1 VH
VL: B1 VL with K31S, H51R, A94S
For B3, the “IC50 of neutralization of SARS-CoV-2 pseudovirus (HeLa-hACE2 cells)” value [4] was 6.16 µg/mL.
